Measurements from IntAct's records for PubMed 25122212.

B1: Envelope small membrane protein (Human SARS coronavirus), P59637 (parent)
chain: MYSFVSEETGTLIVNSVLLFLAFVVFLLVTLAILTALRLCAYCCNIVNVSLVKPTVYVYSRVKNLNSSEGVPDLLV

Variants of: B1
Details: with SDCBP

Variant	effect of a mutation on the interaction
D73G;L74G;L75G;V76G	decreasing interaction strength

Variants of: B1
Details: with SDCBP
Remark: another data set of the same source

Variant	effect of a mutation on the interaction
E69A;V71A;D73A;L75A	with no effect
